# Results from paper PMC2848554, “Topology and Organization of the Salmonella typhimurium Type III Secretion Needle Complex Components” (PLoS Pathogens, 2010).
# B1: InvG (natural protein)
# chain: SEKIPVTGSGFVAKDDSLRTFFDAMALQLKEPVIVSKMAARKKITGNFEFHDPNALLEKLSLQLGLIWYFDGQAIYIYDASEMRNAVVSLRNVSLNEFNNFLKRSGLYNKNYPLRGDNRKGTFYVSGPPVYVDMVVNAATMMDKQNDGIELGRQKIGVMRLNNTFVGDRTYNLRDQKMVIPGIATAIERLLQGEEQPLGNIVSSEPPAMPAFSANGEKGKAANYAGGMSLQEALKQNAAAGNIKIVAYPDTNSLLVKGTAEQVHFIEMLVKALDVAKRHVELSLWIVDLNKSDLERLGTSWSGSITIGDKLGVSLNQSSISTLDGSRFIAAVNALEEKKQATVVSRPVLLTQENVPAIFDNNRTFYTKLIGERNVALEHVTYGTMIRVLPRFSADGQIEMSLDIEDGNDKTPQSDTTTSVDALPEVGRTLISTIARVPHGKSLLVGGYTRDANTDTVQSIPFLGKLPLIGSLFRYSSKNKSNVVRVFMIEPKEIVDPLTPDASESVNNILKQSGAWSGDDKLQKWVRVYLDRGQEAIK
# notes: InvG, secretin of the SPI-1 needle complex (outer rings and neck), S. typhimurium; processed InvG starts at Ser-25; printed residue numbers include the signal peptide; Stood in the assays as a subunit of the purified needle complex; source: endogenous, S. typhimurium strain SB905 (w.t.) and SB906 complemented with plasmid-borne PrgH; purified within needle complexes
# B2: PrgH mutant lacking its last 4 amino acids (PrgH^Δ4) (domain or fragment)
# chain: METSKEKTITSPGPYIVRLLNSSLNGCEFPLLTGRTLFVVGQSDALTASGQLPDIPADSFFIPLDHGGVNFEIQVDTDATEIILHELKEGNSESRSVQLNTPIQVGELLILIRPESEPWVPEQPEKLETSAKKNEPRFKNGIVAALAGFFILGIGTVGTLWILNSPQRQAAELDSLLGQEKERFQVLPGRDKMLYVAAQNERDTLWARQVLARGDYDKNARVINENEENKRISIWLDTYYPQLAYYRIHFDEPRKPVFWLSRQRNTMSKKELEVLSQKLRALMPYADSVNITLMDDVTAAGQAEAGLKQQALPYSRRNHKGGVTFVIQGALDDVEILRARQFVDSYYRTWGGRYVQFAIELKDDWLKGRSFQYGAEGYIKMSPGHWYF
# notes: PrgH of S. typhimurium without its last 4 amino acids; also called C-terminal truncated PrgH; source: S. typhimurium SB906 (chromosomal ΔprgH) complemented with a pWSK29 plasmid, natural promoter; purified within needle complexes; copies: 24
# B3: PrgH (natural protein)
# chain: METSKEKTITSPGPYIVRLLNSSLNGCEFPLLTGRTLFVVGQSDALTASGQLPDIPADSFFIPLDHGGVNFEIQVDTDATEIILHELKEGNSESRSVQLNTPIQVGELLILIRPESEPWVPEQPEKLETSAKKNEPRFKNGIVAALAGFFILGIGTVGTLWILNSPQRQAAELDSLLGQEKERFQVLPGRDKMLYVAAQNERDTLWARQVLARGDYDKNARVINENEENKRISIWLDTYYPQLAYYRIHFDEPRKPVFWLSRQRNTMSKKELEVLSQKLRALMPYADSVNITLMDDVTAAGQAEAGLKQQALPYSRRNHKGGVTFVIQGALDDVEILRARQFVDSYYRTWGGRYVQFAIELKDDWLKGRSFQYGAEGYIKMSPGHWYFPSPL
# notes: PrgH, inner ring protein of the SPI-1 type III secretion needle complex, S. typhimurium; wild-type chromosomal allele; the N-terminal amino group of Met-1 (peptide METSK) was cross-linked; predicted transmembrane domain 142-162; Stood in the assays as a subunit of the whole purified needle complex or of the ΔinvG substructure, not as an isolated protein; source: endogenous, S. typhimurium strains …
# Tests used:
# [1] = biological target: the molecule itself; assay: cryo electron microscopy, single particle class averages; purified complexes from wild type and ΔinvG strains, vitrified; two-dimensional class averages and their density difference
# InvG [2] = biological target: B1; assay: negative-stain electron microscopy; purified needle complexes of the PrgH^Δ4 strain, without high pH treatment; negative stain; conditions: both partners purified
# [3] = biological target: the molecule itself; assay: negative-stain electron microscopy, single particle analysis; purified needle complexes incubated in 10 mM sodium phosphate pH 10.4 (legend: pH 10.5), 0.5 M NaCl, 0.1% LDAO, 15 min at 37°C, sucrose gradient, then negative stain (PTA or NanoVan); no symmetry imposed, rotational cross-correlation
# InvG [4] = biological target: B1; assay: cross-linking; sucrose gradient purified whole needle complexes (about 1 mg/ml, w.t. strain SB905) on ice with 200 µM BS2G-d0/d4 for 30 or 60 min; single particles re-purified on sucrose gradients; tryptic digestion in solution, high-resolution mass spectrometry, xQuest score above 15; conditions: both partners purified
# [5] = biological target: B2; assay: negative-stain electron microscopy, single particle analysis; purified needle complexes incubated in 10 mM sodium phosphate pH 10.4 (legend: pH 10.5), 0.5 M NaCl, 0.1% LDAO, 15 min at 37°C, sucrose gradient, then negative stain (PTA or NanoVan); no symmetry imposed, rotational cross-correlation; conditions: both partners purified
# PrgH = biological target: B3; assay: cross-linking; sucrose gradient purified whole needle complexes (about 1 mg/ml, w.t. strain SB905) on ice with 200 µM BS2G-d0/d4 for 30 or 60 min; single particles re-purified on sucrose gradients; tryptic digestion in solution, high-resolution mass spectrometry, xQuest score above 15; conditions: both partners purified
binder,measurement,setting,value
B1,binding result,[1],binds
B2,binding result,InvG [2],binds
same,stoichiometry N,[3],24
B3,binding result,InvG [4],binds
"PrgK (natural protein, lipoprotein; lipidated N-terminal cysteine (Cys-18), PrgK, lipoprotein of the SPI-1 needle complex base, S. typhimurium; predicted transmembrane domain 207-227; printed residue numbers include the signal peptide; Stood in the assays as a subunit of the purified needle complex or its substructures; source: endogenous, S. typhimurium strains SB905 (w.t.), SB1171 (ΔinvG) and SB906 complemented with plasmid-borne PrgH; purified within needle complexes) CKDKDLLKGLDQEQANEVIAVLQMHNIEANKIDSGKLGYSITVAEPDFTAAVYWIKTYQLPPRPRVEIAQMFPADSLVSSPRAEKARLYSAIEQRLEQSLQTMEGVLSARVHISYDIDAGENGRPPKPVHLSALAVYERGSPLAHQISDIKRFLKNSFADVDYDNISVVLSERSDAQLQAPGTPVKRNSFATSWIVLIILLSVMSAGFGVWYYKNHYARNKKGITADDKAKSSNE",stoichiometry N,[3],24
same,binding result,[5],binds
same,binding result,PrgH,binds
